# Reference: doi:10.1101/2021.09.16.460631
# Tests used:
# Test in all cases: EMSA
# [1] = tested on: Protamine 1 (WT P1) (Mus musculus (C57BL/6N background))
# [2] = tested on: Protamine 1 K49A (Mus musculus (C57BL/6N, P1 K49A/K49A knock-in))
# [3] = tested on: Protamine 2 precursor (pro P2) (Mus musculus (C57BL/6N, P1 K49A/K49A knock-in))
# [4] = tested on: Protamine 2, mature (WT P2) (Mus musculus (C57BL/6N background))
substance,measurement,setting,value
~300 bp linear DNA (280 bp PCR product),Kd,[1],680 nM
same,Kd,[2],950 nM
same,Kd,[3],840 nM
same,Kd,[4],670 nM
